Data: paper PMC3848040

Substrate: Nc1ncnc2c1ncn2[C@@H]1O[C@H](COP(=O)(O)OP(=O)(O)OP(=O)(O)O)[C@@H](O)[C@H]1O
Experiment: purified protein
Settings: phosphate donor; activity depends on divalent ions

B1: SGK196dTM (Homo sapiens) (protein)
chain: APRQSTVDPTHCPYGHFRIGQMKNCSPWLSCEELRTEVRQLKRVGEGAVKRVFLSEWKEHKVALSQLTSLEMKDDFLHGLQMLKSLQGTHVVTLLGYCEDDNTMLTEYHPLGSLSNLEETLNLSKYQNVNTWQHRLELAMDYVSIINYLHHSPVGTRVMCDSNDLPKTLSQYLLTSNFSILANDLDALPLVNHSSGMLVKCGHRELHGDFVAPEQLWPYGEDVPFHDDLMPSYDEKIDIWKIPDISSFLLGHIEGSDMVRFHLFDIHKACKSQTPSERPTAQDVLETYQKVLDTLRDAMMSQAREML
- Km: 4.1 ± 1.4 µM
